The target of assay [1] is T1, VAMP7 longin domain (UniProt P70280 1-120).
T1 chain: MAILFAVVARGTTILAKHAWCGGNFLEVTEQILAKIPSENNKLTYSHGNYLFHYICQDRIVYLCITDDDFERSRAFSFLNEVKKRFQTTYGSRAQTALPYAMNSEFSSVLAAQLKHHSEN
Briefly: ITC. In general terms: Isothermal titration calorimetry measures the heat released or taken up as one component is titrated into another.

Assay [2] deals with VAMP7 longin domain L43S/Y45S (UniProt P70280 1-120, L43S | Y45S). As to the kind of experiment: ITC.
Assay [3] addresses T2, VAMP7 longin domain (UniProt P70280 1-120).
T2 construct: VAMP7 (Ti-VAMP), longin domain; also called VAMP7LD; VAMP longin domain
T2 sequence (looked up): T1 chain
As to the kind of experiment: ITC; Microcal Auto-iTC200; VAMP7 longin domain in the cell at 0.15–0.2 mM, GST delta constructs at 0.8–1.2 mM titrated; 50 mM HEPES pH 7.4, 200 mM NaCl, 4 mM ß-mercaptoethanol. The conditions noted are these: both partners purified.

As for PFYIKSSPSPQKRYQDTPGVEHSPSVQIDLSVPLKVPGLPMSDQYVKLE (domain or fragment) [GST δ-adaptin (680–728) I702S/V704S], the dissociation constant Kd (as a rule, the equilibrium constant for the complex coming apart) in assay [1] is more than 300 µM.

Molecule PFYIKSSPSPQKRYQDTPGVEHIPVVQIDSSVPSKVPGLPMSDQYVKLE (domain or fragment) [GST δ-adaptin (680–728) L709S/L713S] yielded a Kd in assay [1] of more than 300 µM.

B1: GST δ-adaptin (680–728) (domain or fragment, UniProt O14617-5 680-728, looked up)
chain: PFYIKSSPSPQKRYQDTPGVEHIPVVQIDLSVPLKVPGLPMSDQYVKLE
notes: source: Rosetta2(DE3)pLysS, purified (glutathione-Sepharose, Superdex 75)
Consider B1, for which the Kd is more than 300 µM in assay [2] and 14 µM in assay [3].

The values above are taken from PMC3549491, “Structural Basis of the Intracellular Sorting of the SNARE VAMP7 by the AP3 Adaptor Complex” (Developmental Cell, 2012).
